This is an account of results in paper PMC3154542 (Growth Factors (Chur, Switzerland), 2011).

The chains are these.
B1: BMPRII (BMP receptor 2 extracellular domain linked to the human IgG Fc region) (Fc fusion, UniProt Q13873 27-150, looked up)
chain: SQNQERLCAFKDPYQQDLGIGESRISHENGTILCSKGSTCYGLWEKSKGDINLVKQGCWSHIGDPQECHYEECVVTTTPPSIQNGTYRFCCCSTDLCNVNFTENFPPPDTTPLSPPHSFNRDET
notes: BMP receptor type 2 (BMPR2, BMPRII), type II receptor, extracellular domain; printed as 'BMPRII' without '-Fc' in the list of Fc fusion proteins; also called BMPR2; BMPR-2; source: synthesized in-house
B2: recombinant human bone morphogenetic protein 13 (rhBMP13) (ligand, UniProt Q6KF10 336-455, looked up)
chain: TAFASRHGKRHGKKSRLRCSKKPLHVNFKELGWDDWIIAPLEYEAYHCEGVCDFPLRSHLEPTNHAIIQTLMNSMDPGSTPPSCCVPTKLTPISILYIDAGNNVVYKQYEDMVVESCGCR
notes: bone morphogenetic protein 13 (BMP13, also known as GDF6), human, mature form; homodimer by non-reducing SDS-PAGE
B3: ACVR2B-Fc (activin receptor type-2B extracellular domain linked to the human IgG Fc region) (Fc fusion, UniProt Q13705 19-137, looked up)
chain: SGRGEAETRECIYYNANWELERTNQSGLERCEGEQDKRLHCYASWRNSSGTIELVKKGCWLDDFNCYDRQECVATEENPQVYFCCCEGNFCNERFTHLPEAGGPEVTYEPPPTAPTLLT
notes: activin receptor type-2B (ACVR2B), type II receptor, extracellular domain; source: synthesized in-house
B4: recombinant human bone morphogenetic protein 2 (rhBMP2) (ligand, UniProt P12643 283-396, looked up)
chain: QAKHKQRKRLKSSCKRHPLYVDFSDVGWNDWIVAPPGYHAFYCHGECPFPLADHLNSTNHAIVQTLVNSVNSKIPKACCVPTELSAISMLYLDENEKVVLKNYQDMVVEGCGCR
notes: bone morphogenetic protein 2, human, mature domain; homodimer by non-reducing SDS-PAGE; source: CHO cells, purified (as in Wang et al. 1990)
B5: recombinant human bone morphogenetic protein 12 (rhBMP12) (ligand, UniProt Q7Z4P5 322-450, looked up)
chain: TALAGTRTAQGSGGGAGRGHGRRGRSRCSRKPLHVDFKELGWDDWIIAPLDYEAYHCEGLCDFPLRSHLEPTNHAIIQTLLNSMAPDAAPASCCVPARLSPISILYIDAANNVVYKQYEDMVVEACGCR
notes: bone morphogenetic protein 12 (BMP12, also known as GDF7), human, mature form; homodimer by non-reducing SDS-PAGE
B6: ALK6-Fc (activin receptor-like kinase 6 extracellular domain linked to the human IgG Fc region) (Fc fusion, UniProt O00238 14-126, looked up)
chain: KKEDGESTAPTPRPKVLRCKCHHHCPEDSVNNICSTDGYCFTMIEEDDSGLPVVTSGCLGLEGSDFQCRDTPIPHQRRSIECCTERNECNKDLHPTLPPLKNRDFVDGPIHHR
notes: activin receptor-like kinase 6 (ALK6), type I BMP receptor, extracellular domain; source: synthesized in-house

Data set [1] concerns the target B5. The data set is described as follows: BLI; receptor extracellular domain-Fc chimeras immobilised on anti-human IgG Fc biosensor tips (ForteBio Octet RED); sixfold serial dilutions of human BMPs in solution; association 10 min, dissociation 30 min; global fit to a 1:1 Langmuir model. The conditions noted are these: both partners purified. On the technique in general: Biolayer interferometry detects binding as a change in optical thickness at a sensor tip.

For data set [2], the target named is B1. Described as above. To be noted: both partners purified.
Data set [3] addresses T1, ALK3-Fc (activin receptor-like kinase 3 extracellular domain linked to the human IgG Fc region) (UniProt P36894 24-152).
T1 construct: activin receptor-like kinase 3 (ALK3), type I BMP receptor, extracellular domain; source: bought: R&D Systems
The description is as above. The conditions noted are these: both partners purified.

Data set [4] concerns the molecule itself. In words: non-reducing SDS-PAGE; purified proteins on 12% polyacrylamide gels under non-reducing against reducing (β-mercaptoethanol) conditions, Coomassie blue staining.
Data set [5] has as its target B2. The data set is described as follows: BLI; receptor extracellular domain-Fc chimeras immobilised on anti-human IgG Fc biosensor tips (ForteBio Octet RED); sixfold serial dilutions of human BMPs in solution; association 10 min, dissociation 30 min; global fit to a 1:1 Langmuir model. The conditions noted are these: both partners purified.
In data set [6] the target is B4. The data set is described as above. To be noted: both partners purified.

T1 sequence (P36894 24-152): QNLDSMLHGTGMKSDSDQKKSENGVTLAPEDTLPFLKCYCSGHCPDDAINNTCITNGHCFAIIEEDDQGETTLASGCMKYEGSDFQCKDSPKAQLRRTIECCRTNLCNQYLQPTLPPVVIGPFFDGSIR

B1: in data set [1], the Kd (as a rule, the concentration at which binding is half-saturated) was found to be 52.1 nM; the off-rate (koff) (usually a measure of how fast the partners let go of each other) is 0.322 s⁻¹; the association rate constant (kon) (usually the rate constant with which the complex forms) came out at 9.26e+06 M⁻¹ s⁻¹.
Take B2: in data set [2], the dissociation constant (Kd) was 28.1 nM, the koff came to 0.16 s⁻¹ and the association rate constant (kon) is 5.7e+06 M⁻¹ s⁻¹. In data set [3], this molecule showed a dissociation constant Kd of 1.7 nM, a koff of 0.0084 s⁻¹ and an on-rate constant (kon) of 4.97e+06 M⁻¹ s⁻¹. Besides, the stoichiometry N – broadly, a count of units in the complex or per binding partner – in data set [4] is 2.
In the case of B3, in data set [5], the Kd came out at 1.6 nM, the koff worked out at 0.0041 s⁻¹ and the kon was 2.59e+06 M⁻¹ s⁻¹. Further, in data set [1], the Kd came out at 1 nM, the koff was determined as 0.0138 s⁻¹ and the on-rate constant (kon) came to 1.29e+07 M⁻¹ s⁻¹.
As for B4, the “stoichiometry N” value in data set [4] was found to be 2.
As for B5, in data set [3], the Kd worked out at 3.4 nM, the koff came out at 0.0164 s⁻¹ and the on-rate constant (kon) was 5.07e+06 M⁻¹ s⁻¹. In data set [4], the “stoichiometry N” value amounted to 2.
Turning to B6, in data set [6], the Kd was 1.6 nM, the koff turned out to be 0.0064 s⁻¹ and the kon turned out to be 4.28e+06 M⁻¹ s⁻¹. Also, in data set [5], the Kd is 0.5 nM, the dissociation rate constant (koff) amounted to 0.0038 s⁻¹ and the kon amounted to 7.69e+06 M⁻¹ s⁻¹. Besides, in data set [1], the dissociation constant Kd came to 0.6 nM, the koff amounted to 0.004 s⁻¹ and the kon is 6.48e+06 M⁻¹ s⁻¹.
